Article PMC3797041 (PLoS ONE, 2013)

B1: hybrid antibody C8A3 (VHH)
VHH: EVQLQASGGGLVQGGDSLRLSCAASGRTFSRAVMGWFRQAPGKEREFVSAISAAPGTAYYAFYADSVRGRFTISRDNAKNAVYLQMNSLKPEDTAVYYCAVDLKMQVAAYMNQRSVDYWGQGTQVTVSS
B2: hybrid construct D1A3 (VHH)
VHH: EVQLQASGGGLVQPGGSLRLACQYSGRTFSRAVMGWFRQSPGKEREFVAAISAAPGTAYYAFYADSVRGRFTTSSDNFKKTAYLQMNGLKPEDTALYYCTEDLKMQVAAYMNQRSVDYWSQGTQVTVSS
B3: hybrid AAD (VHH)
VHH: EVQLVESGGGLVQAGDSLRLSCTASGRTFSRAVMGWFRQAPGKEREFVAAISAAPGTAYYAFYADSVRGRFSISADSAKNTVYLQMNSLKPEDTAVYYCAADTWNSVVTGTAADWGQGTQVTVSS
B4: hybrid construct A3D1 (VHH)
VHH: EVQLVESGGGLVQAGDSLRLSCTASGREGTTTVGWFRQAPGKEREFVAAIRWTDSRTPHTDSRFSISADSAKNTVYLQMNSLKPEDTAVYYCAADTWNSVVTGTAADWGQGTQVTVSS
B5: hybrid DDA (VHH)
VHH: EVQLQASGGGLVQPGGSLRLACQYSGREGTTTVGWFRQSPGKEREFVAAIRWTDSRTPHTDSRFTTSSDNFKKTAYLQMNGLKPEDTALYYCTEDLKMQVAAYMNQRSVDYWSQGTQVTVSS
B6: hybrid antibody A3C8 (VHH)
VHH: EVQLVESGGGLVQAGDSLRLSCTASGRTLGDYGVAWFRQAPGKEREFVSVISRSTIITDYADSVRGRFSISADSAKNTVYLQMNSLKPEDTAVYYCAVIANPVYATSRNSDDYGHWGQGTQVTVSS
B7: hybrid ADD (VHH)
VHH: EVQLQASGGGLVQPGGSLRLACQYSGRTFSRAVMGWFRQSPGKEREFVAAIRWTDSRTPHTDSRFTTSSDNFKKTAYLQMNGLKPEDTALYYCTEDTWNSVVTGTAADWSQGTQVTVSS
B8: hybrid DAD (VHH)
VHH: EVQLQASGGGLVQPGGSLRLACQYSGREGTTTVGWFRQSPGKEREFVAAISAAPGTAYYAFYADSVRGRFTTSSDNFKKTAYLQMNGLKPEDTALYYCTEDTWNSVVTGTAADWSQGTQVTVSS

target: T1, Staphylococcal enterotoxin B (Staphylococcus aureus, strain , UniProt P01552); assay: SPR; conditions: both partners purified
T1 construct: source: bought: Toxin Technologies
T1 sequence (P01552 28-266): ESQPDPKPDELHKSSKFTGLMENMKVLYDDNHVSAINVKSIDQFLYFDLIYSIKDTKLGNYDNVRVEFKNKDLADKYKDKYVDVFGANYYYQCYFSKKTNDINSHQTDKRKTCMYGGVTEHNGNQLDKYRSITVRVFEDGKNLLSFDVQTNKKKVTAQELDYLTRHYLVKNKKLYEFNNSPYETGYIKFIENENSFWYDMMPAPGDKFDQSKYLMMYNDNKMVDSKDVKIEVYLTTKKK

Question: B1 was tested. Which Kd did it give?
Answer: 2.7 nM

Question: With B2 as the binder, how does the Kd read?
Answer: 0.56 nM

Question: B3 was tested. Which Kd did it give?
Answer: 12 nM

Question: Does B4 bind?
Answer: no binding

Question: Does B5 bind?
Answer: no binding

Question: Does B6 bind?
Answer: no binding

Question: Does B7 bind?
Answer: no binding

Question: For B8, which Kd is on record?
Answer: 20 nM
